The text below walks through data of patent CN113185608A.

The target in this assay is 狂犬病毒糖蛋白(Glycoprotein，GP) (Rabies virus (RABV)). Description: ELISA of HEK293T transfection supernatant.

Numbering of substitutions follows the chain as printed. Some results are limits rather than exact numbers.

B1: 1H3+3λ1 (antibody, V domains shown)
VH: VHSQVQLVESGGGVVQPGRSLRLSCAASGFTFSSYAMHWVRQAPGKGLEWVAVISYDGNKYYADSVKGRFTISRDNSKNTLYLQMNSLRDEDTAVYYCARAPDCSGGSCSTEYFQHWGQGTLVTVSS
VL: SWAQSVLTQEPSLTVSPGGTVTLTCGSSTGAVTSGLYAYWFQQKPGQVPRTLIYNISNKQSWTPARFSGSLLGGKAALTLSGAQPEDEADYYCLLSYSRTRVFGTKLTVLGQPKAAPSVTLFP
For the molecule B1, the OD (ELISA) was over 1.1 OD.

B2: 1H10+3λ5 (antibody, V domains shown)
VH: EVQLVQSGGGLVQPGGSLRLSCAASVEAFSTYWMNWVRQAPGKGLEWVANINRDGSQKYYVDSVEGRFTISRDNAKSSLYLQMNSLRADDTAVYYCMSGYDSGHWGQGSLVTVSS
VL: SQAVVTQEPSLTVSPGGTVTLTCGSSTGAVTSGLYAYWFQQKPGQVPRTLSTGAVIYNISNKQSWTPARFSGSLLGGKAALTLSGAQPEDEADYYCLLSYSRTRVFGGGTKLTVLG
On to B2, for which the OD (ELISA) is over 1.1 OD.

B3: 1H16+3λ7 (antibody, V domains shown)
VH: B2 VH with Q6E, V26G, E27F, A28T
VL: SQAVVTQEPSLTVSPGGTVTLTCGSSTGAVTSGLYAYWTVTFQQKPGQVPRTLIYNISNKQSWTPARFSGSLLGGKAALTLSGAQPEDEADYYCLLSYSRTRVFGGGTKLTVLG
As to B3, the OD (ELISA) was over 1.1 OD.

B4: 1H18+3λ10 (antibody, V domains shown)
VH: EVQLVQSGGGLVQPGGSLRLSCAASGFTFSTYWMNWVRLSQTPGKGLEWVANINRDGSQKYYVDSVEGRFTISRLSDNAKSSLYLQMNSLRADDTAVYYCMSGYDSGHWGQGSTVTVSS
VL: SQTVVTQEPSLTVSPGGTVTLTCGSSTGAVTSGLYAQQKPGQVPRTLIYNISNKQSWTPARFSGSLLGGKAALTLSGAQPEDEADYYCLLSYSRTRVFGGGTKLTVLG
For the molecule B4, the OD (ELISA) is over 1.1 OD.

B5: 1H17+3λ8 (antibody, V domains shown)
VH: EVQLLESGGGLVQPGGSLRLSCAASGFTFSTYWMNWVRQAPGKGLEWVANRDGSQKYYVDSVEGRFTISRDNAKSSLYLQMNSLRADDTAVYYCMSGYDSGHWGQGSTVTVSS
VL: ANFMLTQEPSLTVSPGGTVTLTCGSSTGAVTSGLYAYWFQQKPGQVPRTLIYNISNKQSWTPARFSGSLLGGKAALTLSGPEDEADYYCLLSYSRTRVFGGGTKLTVLG
B5: the OD (ELISA) was over 1.1 OD.
